Consider 40 sequences from the nanobody polyreactivity screen of Harvey et al. (2022).

The nature of this data set: yeast display, Sf9 membrane polyspecificity reagent, FACS + sequencing; frameworks hold sequencing errors. The essentials:
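Polyreactivity labels are assigned by the sorting gate from which each nanobody was recovered. The gates were low and high (top ~1%), set on anti-HA fluorescence for expression and streptavidin fluorescence for reagent binding. Before sorting, galactose-induced (36–48 hours) yeast display cells were stained for 1 hour at 4 °C with 10% biotinylated, detergent-solubilized Sf9 membrane reagent.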
Regarding “QVQLVESGGGLVQAGGSLRLSCAASGIIFIPYAMGWYRQAPGKEREFVAAISSSGGSTYYADSVKGRFTISRDNAKNTVYLQMNSLKPEDTSVYYCAAQYVSRRYSRYNYWGQGTQVTVSS”, the “polyreactivity (PSR sort gate)” value is on record as “high polyreactivity”.

Take “QVQLVESGGGLVQAGGSLRLSCAASGIIFIPYAMGWYRQAPGKERELVASISKRGGRTYYADSVKGRFTISRDNAKNTVYLQMNSLKPEDTAVYYCAAYARYPVVYGVDYWGQGTQVTVSS”: the “polyreactivity (PSR sort gate)” value is “high polyreactivity”.

Consider “QVQLVESGGGLVQAGGSLRLSCAASGIIFIVNSMGWYRQAPGKERELVADISENGGDTYYADSVKGRFTISRDNAKNTVYLQMNSLKPEDSAVYYCAKSGEPYTRFDYWGQGTQVTVSS”, for which the “polyreactivity (PSR sort gate)” value is “low polyreactivity”.

With “QVQLVESGGGLVQAGGSLRLSCAASGIIFKLYAMGWYRQAPGKEREFVATITKTGGRTYYADSVKGRFTISRDNAKNTVYLQMNSLKPEDTAVYYCAARRVNGKMYYWGQGTQVTVSS”, the “polyreactivity (PSR sort gate)” value was “high polyreactivity”.

For the sequence “QVQLVESGGGLVQAGGSLRLSCAASGIIFKLYAMGWYRQAPGKERELVAAITYRGGTTYYADSVKGRFTISRDNAKNTVYLQMNSLKPEDTAVYYCAADNTFRDDYFLYYLFNYNYWGQGTQVTVSS”, the “polyreactivity (PSR sort gate)” value is recorded as “low polyreactivity”.

Regarding “QVQLVESGGGLVQAGGSLRLSCAASGIIFKYNVMGWYRQAPGKERELVAAITDSGTSTFYADSVKGRFTISRDNAKNTVYLQMNSLKPEDTAVYYCAADEFSVFTIETYGYDYWGQGTQVTVSS”, the “polyreactivity (PSR sort gate)” value is “low polyreactivity”.

Turning to “QVQLVESGGGLVQAGGSLRLSCAASGIIFKYYAMGSYRQAPGKERELVAAITRSGGSTYYADSVKGRFTISRDNAKNTVYLQMNSLKPVDTGVYYCAAQTGYSYGITWQFTKYNYWGQGTQVTVSS”, the “polyreactivity (PSR sort gate)” value is on record as “low polyreactivity”.

Turning to “QVQLVESGGGLVQAGGSLRLSCAASGIIFKYYAMGWYRQAPGKERELVAAISRSSGSTYYADSVKGRFTISRDNAKKTVYLQMNSLKPEDTAVYYCAASGWPQKYDYWGQGTQVTVSS”, the “polyreactivity (PSR sort gate)” value is listed as “high polyreactivity”.

Regarding “QVQLVESGGGLVQAGGSLRLSCAASGIIFKYYSKGWYRQAPGKERELVAAITSGGSTNYADSVKGRFTISRDNAKNTVYLQMNSLKPEDTAVYYCAKRFYYRNRFDYWGQGTQETVSS”, the “polyreactivity (PSR sort gate)” value is given as “low polyreactivity”.

For “QVQLVESGGGLVQAGGSLRLSCAASGIIFLANAMGWYRQAPGKERELVAAISLDGGRTYYADSVKGRFTISRDNAKNTVFLQMNSLKPEDTAVYYCAADYGYVILYEYWGQGTQVTVSS”, the “polyreactivity (PSR sort gate)” value is reported as “low polyreactivity”.

Regarding “QVQLVESGGGLVQAGGSLRLSCAASGIIFLGYVMGWYRQAPGKERELVAAISSSGGRTYYADSVKGRFTISRDNAKNTVYLQMNSLKPEDTAVYYCATRTLQPGYTYPRYYWGQGTQVTVSS”, the “polyreactivity (PSR sort gate)” value was “high polyreactivity”.

Consider “QVQLVESGGGLVQAGGSLRLSCAASGIIFLNNAMGLYIQAPGKERELVAVISFIGDSTYYADSVKGRFTISRDNSKNSVYLQMNSLKPEDTAVYYCAADYYLPYWFFVGYDYWGQGTQVTVSS”, for which the “polyreactivity (PSR sort gate)” value was “low polyreactivity”.

Consider “QVQLVESGGGLVQAGGSLRLSCAASGIIFLTNAMGWYRQAPGTVRELVAAITAIGGSTYYADSVKGRFTISRDNAKNTVYLQMNSLKPEDTAVYYCAADCSYVYYLYDYWGQGTQVTVSS”, for which the “polyreactivity (PSR sort gate)” value is listed as “low polyreactivity”.

For “QVQLVESGGGLVQAGGSLRLSCAASGIIFNLYAMGWYRQAPGKERELVAAISWSGGSTYYADSVKGRFTISRDNAKNTVYLQMNSLKPEDTAVYYCATSFLYPYFDEDDYWGQGTQVTVSS”, the “polyreactivity (PSR sort gate)” value is “high polyreactivity”.

For “QVQLVESGGGLVQAGGSLRLSCAASGIIFNWYAMGWYRQAPGKERELVAAISGSGDITYYADSVKGRFTISRDNAKNTVYLQMNSLKPEDTAVYYCAADPWTYWEDYDYWGQGTQVTVSS”, the “polyreactivity (PSR sort gate)” value is given as “low polyreactivity”.

For “QVQLVESGGGLVQAGGSLRLSCAASGIIFNWYAMGWYRQAPGKERELVAGISTSGGSTYYADSVKGRFTISRDNAKNTVYLQMNSLKPEDTAVYYCAAGRRGAWQYGYYYWGQGTQVTVSS”, the “polyreactivity (PSR sort gate)” value is listed as “high polyreactivity”.

For “QVQLVESGGGLVQAGGSLRLSCAASGIIFNYNAMGWYRQAPGKERELVATISSGDSTNYADSVKGRFTISRDNAKNTVYLQMNSLKPEDTAVYYCAAESPSVFDGYAQLYIILEDYWGQGTQVTVSS”, the “polyreactivity (PSR sort gate)” value is listed as “low polyreactivity”.

Turning to “QVQLVESGGGLVQAGGSLRLSCAASGIIFPGYTMGWSRQAPGPEREVVAAISSGGRTNYADSVKGRFTISRDNAKNTVYLQMNSLKPEDTAVYYCAATRVASLGSPMYYCGQGTQVTVSS”, the “polyreactivity (PSR sort gate)” value is listed as “high polyreactivity”.

As to “QVQLVESGGGLVQAGGSLRLSCAASGIIFPGYVMGWYRQAPGKERELVAAISYSGGRTYYADSVKGRFTISRDNAKNTVYLQMNSLIPEDTAVYYCAARKSYFTSTDRYYGYYYHQSNYLGQGTQVTVSS”, the “polyreactivity (PSR sort gate)” value is reported as “high polyreactivity”.

As for “QVQLVESGGGLVQAGGSLRLSCAASGIIFPRNAMGWYRQAPWKERELVAGISRSGGSTSYADSVKGRFTFSRDNAKNTVYLQMNSLKPEDTAVFYCASRGHPFKKSYGSWGQGTQVTVSS”, the “polyreactivity (PSR sort gate)” value is recorded as “high polyreactivity”.

As to “QVQLVESGGGLVQAGGSLRLSCAASGIIFPRYVMGWYRQAPGKERELVAAINRSGGSTYYADSVKGRFTISRDYAKNTVYLQMNSLKPEDTAVYYCAALDVRSYRGGYWGQGTQVTVSS”, the “polyreactivity (PSR sort gate)” value was “high polyreactivity”.

For “QVQLVESGGGLVQAGGSLRLSCAASGIIFPSYVMGWYRQAPGKERELVARISARGGRTYYADSVKGRFTISRDNAKNTVYLQMNSLKPEDTAVYYCAARWGITTWYDYWGQGTQVTVSS”, the “polyreactivity (PSR sort gate)” value is reported as “high polyreactivity”.

On to “QVQLVESGGGLVQAGGSLRLSCAASGIIFPVYTKGWYRQAPGKERELVAAISTSGGRTYYADSVKGRFTISRDNAKNTVYLQMNSLKPEYTAVYYCAAKRYTRKAGYYYWGQGTQVTVSS”, for which the “polyreactivity (PSR sort gate)” value was “high polyreactivity”.

On to “QVQLVESGGGLVQAGGSLRLSCAASGIIFPYNVMGWYRQAPGKERELVAAITRGAASTYYADSVKGRFTISRDNAKNTVYLQMNSLKPEDTAVYYCNADGTWRTYNYWGQGTQVTVSS”, for which the “polyreactivity (PSR sort gate)” value is on record as “high polyreactivity”.

For the sequence “QVQLVESGGGLVQAGGSLRLSCAASGIIFQYYAMGWYRQAPGKERELVAAINSGTTTYYADSVKGRFTITRDNAKNTVYLQMNSLKPEDTAVYYWNKDWHSQDFSAYNSYDYWGQGTQVTVSS”, the “polyreactivity (PSR sort gate)” value is listed as “low polyreactivity”.

For “QVQLVESGGGLVQAGGSLRLSCAASGIIFRFYAMGWYRQAPGKERELVAAIRTSGGSTYYADSVKGRFTISRDNAKNTVYLQMNSLKPEDTAGYYCAARFYNGWTKHNYWGQGTQVTVSS”, the “polyreactivity (PSR sort gate)” value was “high polyreactivity”.

On to “QVQLVESGGGLVQAGGSLRLSCAASGIIFRFYSMGWYRKEPGKERELVAAITSSGGSTYYADSEKGRFTISRDNAKNTVYLQMNSLKPEDSAVYYCATSTGPYRGRFYYWGQGTQVTGSS”, for which the “polyreactivity (PSR sort gate)” value was “high polyreactivity”.

Regarding “QVQLVESGGGLVQAGGSLRLSCAASGIIFRGNAMGWYRQAPGKERELVAAISRSGRTNYADSVKGRFTISRDNAKNTVYLQMNSLKPEDTAVYYCAVDKRYGRVVGRDYDYWGQGTQVTVSS”, the “polyreactivity (PSR sort gate)” value was “high polyreactivity”.

Take “QVQLVESGGGLVQAGGSLRLSCAASGIIFRGNSMGWYRQAPGKERELVAAIRFSGGSTYYADSVKGRFTISRDYAKNTVYLQMNSLKPEDTAVYYFAATRRRYGSTTSEYYYWGQGTQVTVSS”: the “polyreactivity (PSR sort gate)” value is listed as “high polyreactivity”.

Consider “QVQLVESGGGLVQAGGSLRLSCAASGIIFRGYAMGWYRQAPGKERELVARISITGGRTYYADSVKGRFTISRDNAKNTVYLQMNSLKPEDTAVYYCAAGKYVRTVRYDYWGQGTQVTVSS”, for which the “polyreactivity (PSR sort gate)” value is listed as “high polyreactivity”.

With “QVQLVESGGGLVQAGGSLRLSCAASGIIFRGYPMGWYRQAPGKERELVARISITGGRTYYADSVKGRFTSSRDNAKNTVELQMNSLKPEDTAVYYCAAGKYVSTVRYDYWGQGTQVTVAS”, the “polyreactivity (PSR sort gate)” value is “high polyreactivity”.

For “QVQLVESGGGLVQAGGSLRLSCAASGIIFRIYAMGWYRQAPGKEREFVAAISGSGDSTYYADSVKGRFTISRDNAKNTVYLQMNSLKPEDTAVYYCAARAIFRQGDRIYDSWGQGTQVTVSS”, the “polyreactivity (PSR sort gate)” value was “high polyreactivity”.

Consider “QVQLVESGGGLVQAGGSLRLSCAASGIIFRIYAMGWYRQAPGKERELVAAITYIGTSTYYADSVKGRFTISRDNAKNTVYLQMNSLKPEDTAVYFCYFYYVFRSDYWGQGTQVTVSS”, for which the “polyreactivity (PSR sort gate)” value is recorded as “low polyreactivity”.

Consider “QVQLVESGGGLVQAGGSLRLSCAASGIIFRKYAMGRYRQAPGKERELVAAISSSGGSTYYADSVKGRFTISRDNAKNTVYLQMNSLKPEDTAVYYCAAERQVTNKIFNYWGQGTQVTVSS”, for which the “polyreactivity (PSR sort gate)” value was “high polyreactivity”.

As to “QVQLVESGGGLVQAGGSLRLSCAASGIIFRLYAMGWYRQAPGKERELVAAISSGGSTYADSVKGRFTISRDNAKNTVYFQMNSLKPEDTAVYYCAAGRVWHLYWYNYWGQGTQVTVSS”, the “polyreactivity (PSR sort gate)” value is listed as “high polyreactivity”.

As for “QVQLVESGGGLVQAGGSLRLSCAASGIIFRLYAMGWYRQAPGKERELVAAITSRGGSTYYADSVKGRFTISRDNAKNTVYLQKNSLKPEDTAVYYCAARPVYSGYDYWGQGPQVTVSS”, the “polyreactivity (PSR sort gate)” value is on record as “high polyreactivity”.

Consider “QVQLVESGGGLVQAGGSLRLSCAASGIIFRNYAMGWYRQAPGKERELVATIRYRGGRTYADSVKGRFTISRDNAKNTVYLQMNSLKPEDTAVYYCNTYARYAYLTGRMEYWGQGTQVTVSS”, for which the “polyreactivity (PSR sort gate)” value is listed as “high polyreactivity”.

Consider “QVQLVESGGGLVQAGGSLRLSCAASGIIFRPYTMGWYRQAPGKERELVAAISQSGGRTYYADSVKGRFTISRDNAKNTVYLQMNSLKPEDTAVYYCNVLGSYSYYPWPIPGYDYWGQGTQVTVSS”, for which the “polyreactivity (PSR sort gate)” value is listed as “high polyreactivity”.

For the sequence “QVQLVESGGGLVQAGGSLRLSCAASGIIFRQYAMGWYRQAPGKERELVAGISSRGGSTYYADSVKGRFTISRDNAKNTVYLQMNSLKPEDTAVYYCAARYPGYFYHLDYWGQGTQVTVSS”, the “polyreactivity (PSR sort gate)” value is on record as “low polyreactivity”.

Consider “QVQLVESGGGLVQAGGSLRLSCAASGIIFRRYAMGWYRQAPGKERELVAAITRGGITYYADSVKGRFTISRDNAKNTVYLQMNSLKPEDTAVYYCAATYSGTYSLGRGYDYWGQGTQVTVSS”, for which the “polyreactivity (PSR sort gate)” value is reported as “low polyreactivity”.
